Assay results from the Human Domainome abundance scans (Beltran et al. 2025).
± gives the uncertainty stated by the source.

B1: Calcium-binding protein 2, residues 155 to 219; numbered along this chain, Q9NPB3 (parent)
chain: RELRDAFREFDTNGDGRISVGELRAALKALLGERLSQREVDEILQDVDLNGDGLVDFEEFVRMMS

Variants of: B1
Assay: abundance fitness (aPCA) (normalised: wild type 0, dead -1); higher = more abundant; growth selection in yeast, the domain comes from the species named
Details: Homo sapiens

Variant	abundance fitness
RELRDAFREFDTNGDGRISVGELRAALKALLGERLSTREVDEILQDVDLNGDGLVDFEEFVRMMS	0.021 ± 0.082
RELRDAFREFDTNGDGRISVGELRAALKALLGERLSEREVDEILQDVDLNGDGLVDFEEFVRMMS	0.06 ± 0.098
RELRDAFREFDTNGDGRISVGELRAALKALLGERLSLREVDEILQDVDLNGDGLVDFEEFVRMMS	-0.017 ± 0.079
RELRDAFREFDTNGDGRISVGELRAALKALLGERLSHREVDEILQDVDLNGDGLVDFEEFVRMMS	-0.504 ± 0.27
RELRDAFREFDTNGDGRISVGELRAALKALLGERLSWREVDEILQDVDLNGDGLVDFEEFVRMMS	-0.031 ± 0.099
RELRDAFREFDTNGDGRISVGELRAALKALLGERLSRREVDEILQDVDLNGDGLVDFEEFVRMMS	-0.087 ± 0.077
RELRDAFREFDTNGDGRISVGELRAALKALLGERLSDREVDEILQDVDLNGDGLVDFEEFVRMMS	-0.351 ± 0.42
RELRDAFREFDTNGDGRISVGELRAALKALLGERLSAREVDEILQDVDLNGDGLVDFEEFVRMMS	0.003 ± 0.088
RELRDAFREFDTNGDGRISVGELRAALKALLGERLSNREVDEILQDVDLNGDGLVDFEEFVRMMS	0.221 ± 0.25
RELRDAFREFDTNGDGRISVGELRAALKALLGERLSSREVDEILQDVDLNGDGLVDFEEFVRMMS	-0.104 ± 0.13
RELRDAFREFDTNGDGRISVGELRAALKALLGERLSKREVDEILQDVDLNGDGLVDFEEFVRMMS	0.022 ± 0.14
RELRDAFREFDTNGDGRISVGELRAALKALLGERLSGREVDEILQDVDLNGDGLVDFEEFVRMMS	-0.072 ± 0.072
RELRDAFREFDTNGDGRISVGELRAALKALLGERLSCREVDEILQDVDLNGDGLVDFEEFVRMMS	-0.533 ± 0.25
RELRDAFREFDTNGDGRISVGELRAALKALLGERLSMREVDEILQDVDLNGDGLVDFEEFVRMMS	-0.278 ± 0.14
RELRDAFREFDTNGDGRISVGELRAALKALLGERLSPREVDEILQDVDLNGDGLVDFEEFVRMMS	0.266 ± 0.16
RELRDAFREFDTNGDGRISVGELRAALKALLGERLSQREWDEILQDVDLNGDGLVDFEEFVRMMS	0.041 ± 0.055
RELRDAFREFDTNGDGRISVGELRAALKALLGERLSQREMDEILQDVDLNGDGLVDFEEFVRMMS	0.048 ± 0.091
RELRDAFREFDTNGDGRISVGELRAALKALLGERLSQREFDEILQDVDLNGDGLVDFEEFVRMMS	-0.086 ± 0.24
RELRDAFREFDTNGDGRISVGELRAALKALLGERLSQRETDEILQDVDLNGDGLVDFEEFVRMMS	-0.187 ± 0.12
RELRDAFREFDTNGDGRISVGELRAALKALLGERLSQREADEILQDVDLNGDGLVDFEEFVRMMS	0.006 ± 0.07
RELRDAFREFDTNGDGRISVGELRAALKALLGERLSQREGDEILQDVDLNGDGLVDFEEFVRMMS	-0.055 ± 0.065

Variant	abundance fitness
RELRDAFREFDTNGDGRISVGELRAALKALLGERLSQREKDEILQDVDLNGDGLVDFEEFVRMMS	-0.04 ± 0.082
RELRDAFREFDTNGDGRISVGELRAALKALLGERLSQRERDEILQDVDLNGDGLVDFEEFVRMMS	0.108 ± 0.045
RELRDAFREFDTNGDGRISVGELRAALKALLGERLSQREDDEILQDVDLNGDGLVDFEEFVRMMS	0.043 ± 0.13
RELRDAFREFDTNGDGRISVGELRAALKALLGERLSQREIDEILQDVDLNGDGLVDFEEFVRMMS	0.047 ± 0.19
RELRDAFREFDTNGDGRISVGELRAALKALLGERLSQREEDEILQDVDLNGDGLVDFEEFVRMMS	0.169 ± 0.07
RELRDAFREFDTNGDGRISVGELRAALKALLGERLSQRESDEILQDVDLNGDGLVDFEEFVRMMS	-0.011 ± 0.073
RELRDAFREFDTNGDGRISVGELRAALKALLGERLSQRECDEILQDVDLNGDGLVDFEEFVRMMS	-0.086 ± 0.097
RELRDAFREFDTNGDGRISVGELRAALKALLGERLSQREQDEILQDVDLNGDGLVDFEEFVRMMS	0.063 ± 0.071
RELRDAFREFDTNGDGRISVGELRAALKALLGERLSQREYDEILQDVDLNGDGLVDFEEFVRMMS	-0.117 ± 0.23
RELRDAFREFDTNGDGRISVGELRAALKALLGERLSQREHDEILQDVDLNGDGLVDFEEFVRMMS	0.038 ± 0.095
RELRDAFREFDTNGDGRISVGELRAALKALLGERLSQVEVDEILQDVDLNGDGLVDFEEFVRMMS	-0.021 ± 0.071
RELRDAFREFDTNGDGRISVGELRAALKALLGERLSQPEVDEILQDVDLNGDGLVDFEEFVRMMS	-0.056 ± 0.058
RELRDAFREFDTNGDGRISVGELRAALKALLGERLSQDEVDEILQDVDLNGDGLVDFEEFVRMMS	0.1 ± 0.075
RELRDAFREFDTNGDGRISVGELRAALKALLGERLSQKEVDEILQDVDLNGDGLVDFEEFVRMMS	-0.67 ± 0.47
RELRDAFREFDTNGDGRISVGELRAALKALLGERLSQLEVDEILQDVDLNGDGLVDFEEFVRMMS	-0.053 ± 0.068
RELRDAFREFDTNGDGRISVGELRAALKALLGERLSQNEVDEILQDVDLNGDGLVDFEEFVRMMS	0.085 ± 0.1
RELRDAFREFDTNGDGRISVGELRAALKALLGERLSQFEVDEILQDVDLNGDGLVDFEEFVRMMS	-0.104 ± 0.2
RELRDAFREFDTNGDGRISVGELRAALKALLGERLSQTEVDEILQDVDLNGDGLVDFEEFVRMMS	-0.052 ± 0.076
RELRDAFREFDTNGDGRISVGELRAALKALLGERLSQAEVDEILQDVDLNGDGLVDFEEFVRMMS	0.001 ± 0.068
RELRDAFREFDTNGDGRISVGELRAALKALLGERLSQCEVDEILQDVDLNGDGLVDFEEFVRMMS	-0.079 ± 0.08
RELRDAFREFDTNGDGRISVGELRAALKALLGERLSQQEVDEILQDVDLNGDGLVDFEEFVRMMS	-0.212 ± 0.21

Variant	abundance fitness
RELRDAFREFDTNGDGRISVGELRAALKALLGERLSQEEVDEILQDVDLNGDGLVDFEEFVRMMS	-0.232 ± 0.17
RELRDAFREFDTNGDGRISVGELRAALKALLGERLSQSEVDEILQDVDLNGDGLVDFEEFVRMMS	0.001 ± 0.08
RELRDAFREFDTNGDGRISVGELRAALKALLGERLSQIEVDEILQDVDLNGDGLVDFEEFVRMMS	0.03 ± 0.069
RELRDAFREFDTNGDGRISVGELRAALKALLGERLSQYEVDEILQDVDLNGDGLVDFEEFVRMMS	-0.114 ± 0.14
RELRDAFREFDTNGDGRISVGELRAALKALLGERLSQMEVDEILQDVDLNGDGLVDFEEFVRMMS	-0.112 ± 0.1
RELRDAFREFDTNGDGRISVGELRAALKALLGERLSQWEVDEILQDVDLNGDGLVDFEEFVRMMS	-0.107 ± 0.061
RELRDAFREFDTNGDGRISVGELRAALKALLGERLSQGEVDEILQDVDLNGDGLVDFEEFVRMMS	0.014 ± 0.042
RELRDAFREFDTNGDGRISVGELRAALKALLGERLSQREVDMILQDVDLNGDGLVDFEEFVRMMS	-0.143 ± 0.14
RELRDAFREFDTNGDGRISVGELRAALKALLGERLSQREVDLILQDVDLNGDGLVDFEEFVRMMS	-0.175 ± 0.066
RELRDAFREFDTNGDGRISVGELRAALKALLGERLSQREVDGILQDVDLNGDGLVDFEEFVRMMS	-0.081 ± 0.052
RELRDAFREFDTNGDGRISVGELRAALKALLGERLSQREVDKILQDVDLNGDGLVDFEEFVRMMS	-0.178 ± 0.15
RELRDAFREFDTNGDGRISVGELRAALKALLGERLSQREVDIILQDVDLNGDGLVDFEEFVRMMS	-0.204 ± 0.11
RELRDAFREFDTNGDGRISVGELRAALKALLGERLSQREVDAILQDVDLNGDGLVDFEEFVRMMS	-0.183 ± 0.068
RELRDAFREFDTNGDGRISVGELRAALKALLGERLSQREVDCILQDVDLNGDGLVDFEEFVRMMS	-0.074 ± 0.2
RELRDAFREFDTNGDGRISVGELRAALKALLGERLSQREVDDILQDVDLNGDGLVDFEEFVRMMS	-0.166 ± 0.12
RELRDAFREFDTNGDGRISVGELRAALKALLGERLRQREVDEILQDVDLNGDGLVDFEEFVRMMS	-0.004 ± 0.057
RELRDAFREFDTNGDGRISVGELRAALKALLGERLQQREVDEILQDVDLNGDGLVDFEEFVRMMS	0.047 ± 0.1
RELRDAFREFDTNGDGRISVGELRAALKALLGERLPQREVDEILQDVDLNGDGLVDFEEFVRMMS	-0.107 ± 0.065
RELRDAFREFDTNGDGRISVGELRAALKALLGERLYQREVDEILQDVDLNGDGLVDFEEFVRMMS	-0.263 ± 0.18
RELRDAFREFDTNGDGRISVGELRAALKALLGERLNQREVDEILQDVDLNGDGLVDFEEFVRMMS	-0.197 ± 0.14
RELRDAFREFDTNGDGRISVGELRAALKALLGERLVQREVDEILQDVDLNGDGLVDFEEFVRMMS	0.07 ± 0.064

Variant	abundance fitness
RELRDAFREFDTNGDGRISVGELRAALKALLGERLTQREVDEILQDVDLNGDGLVDFEEFVRMMS	0.012 ± 0.12
RELRDAFREFDTNGDGRISVGELRAALKALLGERLMQREVDEILQDVDLNGDGLVDFEEFVRMMS	-0.092 ± 0.093
RELRDAFREFDTNGDGRISVGELRAALKALLGERLWQREVDEILQDVDLNGDGLVDFEEFVRMMS	-0.177 ± 0.07
RELRDAFREFDTNGDGRISVGELRAALKALLGERLSQREVPEILQDVDLNGDGLVDFEEFVRMMS	-0.221 ± 0.14
RELRDAFREFDTNGDGRISVGELRAALKALLGERLSQREVCEILQDVDLNGDGLVDFEEFVRMMS	-0.059 ± 0.14
RELRDAFREFDTNGDGRISVGELRAALKALLGERLSQREVHEILQDVDLNGDGLVDFEEFVRMMS	-0.437 ± 0.11
RELRDAFREFDTNGDGRISVGELRAALKALLGERLSQREVVEILQDVDLNGDGLVDFEEFVRMMS	-0.237 ± 0.076
RELRDAFREFDTNGDGRISVGELRAALKALLGERLSQREVEEILQDVDLNGDGLVDFEEFVRMMS	-0.077 ± 0.083
RELRDAFREFDTNGDGRISVGELRAALKALLGERLSQREVWEILQDVDLNGDGLVDFEEFVRMMS	-0.158 ± 0.075
RELRDAFREFDTNGDGRISVGELRAALKALLGERLSQREVREILQDVDLNGDGLVDFEEFVRMMS	-0.15 ± 0.062
RELRDAFREFDTNGDGRISVGELRAALKALLGERLSQREVYEILQDVDLNGDGLVDFEEFVRMMS	0.03 ± 0.2
RELRDAFREFDTNGDGRISVGELRAALKALLGERLSQREVNEILQDVDLNGDGLVDFEEFVRMMS	-0.506 ± 0.48
RELRDAFREFDTNGDGRISVGELRAALKALLGERLSQREVKEILQDVDLNGDGLVDFEEFVRMMS	-0.095 ± 0.062
RELRDAFREFDTNGDGRISVGELRAALKALLGERLSQREVLEILQDVDLNGDGLVDFEEFVRMMS	-0.305 ± 0.092
RELRDAFREFDTNGDGRISVGELRAALKALLGERLSQREVTEILQDVDLNGDGLVDFEEFVRMMS	-0.104 ± 0.056
RELRDAFREFDTNGDGRISVGELRAALKALLGERLSQREVQEILQDVDLNGDGLVDFEEFVRMMS	-0.365 ± 0.17
RELRDAFREFDTNGDGRISVGELRAALKALLGERLSQREVAEILQDVDLNGDGLVDFEEFVRMMS	-0.151 ± 0.071
RELRDAFREFDTNGDGRISVGELRAALKALLGERLSQREVGEILQDVDLNGDGLVDFEEFVRMMS	-0.162 ± 0.087
RELRDAFREFDTNGDGRISVGELRAALKALLGERLSQREVIEILQDVDLNGDGLVDFEEFVRMMS	-0.184 ± 0.15
RELRDAFREFDTNGDGRISVGELRAALKALLGERLSQREVMEILQDVDLNGDGLVDFEEFVRMMS	-0.302 ± 0.12
